According to patent US5911991A, “Malarial binding site in duffy blood group protein” (New York Blood Center, Inc., priority 1996, dated 1999):
Several values for one entry are separate records, joined by “and”; a condition that tells them apart may be missing. Equal values may be shown once. Read-outs that look alike come from different tables or passages of the source. Ends that are not written are not given here.

Key:
[1] = system: Region II of the P. knowlesi Duffy antigen binding protein (α); conditions: read-out: concentration for 50% inhibition of erythrocyte binding, human erythrocytes
Text: To study the ability of peptides from the Duffy antigen to inhibit erythrocyte binding, a binding assay using the transfected Cos cells was employed, based on a method previously described (Chitnis et al. 1994). This method measures interaction between the malarial Duffy antigen binding ligand expressed by the Cos cells and Duffy protein on erythrocytes. The ability of an analyte to interfere with the cellular binding can be quantitated by comparing the number of Cos cells surrounded by rosettes of erythrocytes in the control versus the number of rosettes formed in the presence of the analyte.
Transfected Cos cells were preincubated for 1 h in a 5% CO2 incubator at 37° C. in 0.9 mL of complete Dulbecco's modified Eagle's medium (cDMEM) containing a series of concentrations (0 to 100 μM) of the peptides. One hundred microliters of human or rhesus erythrocytes at a hematocrit of 10% were added to wells containing the peptides and allowed to bind over 2 h at 37° C. in a 5% CO2 incubator. Non-adherenterythrocytes were removed by washing the Cos7 cells then with PBS. The numbers of rosettes were scored in 20 fields of view at a magnification of 40× using an inverted microscope. Inhibition curves were drawn for three independent experiments and used to determine concentrations of the peptides required to achieve 50% inhibition. […]

[2] = biological target: T1, Region II of P. falciparum EBA-175 (Plasmodium falciparum, UniProt P19214); assay: cell-based
T1 construct: expressed in transfected cells; host or cells: Cos7 cells (ATCC CRL 1651)

[3] = biological target: Region II of the P. knowlesi β protein expressed on the Cos7 cell surface (Plasmodium knowlesi; Herpes simplex virus) (UniProt P50493)
[4] = biological target: rhesus Duffy blood group antigen on normal rhesus erythrocytes (rhesus monkey) (UniProt Q95LF2)
[5] = biological target: deglycosylated rhesus Duffy blood group antigen on N-glycanase-treated rhesus erythrocytes (rhesus monkey) (UniProt Q95LF2)
[6] = biological target: P. knowlesi β Region II; assay: MGSA inhibition of N-glycanase-treated rhesus erythrocyte binding, P. knowlesi β Region II; assay type: cell-based, Plasmodium knowlesi; conditions: rhesus erythrocytes, read-out: 50% Inhibition Conc.
[7] = system: P. vivax Region II; conditions: previously shown (Horuk et al. 1993; Chitnis et al. 1994); cited from earlier work
P. vivax Region II, sequence (P22290 211-521): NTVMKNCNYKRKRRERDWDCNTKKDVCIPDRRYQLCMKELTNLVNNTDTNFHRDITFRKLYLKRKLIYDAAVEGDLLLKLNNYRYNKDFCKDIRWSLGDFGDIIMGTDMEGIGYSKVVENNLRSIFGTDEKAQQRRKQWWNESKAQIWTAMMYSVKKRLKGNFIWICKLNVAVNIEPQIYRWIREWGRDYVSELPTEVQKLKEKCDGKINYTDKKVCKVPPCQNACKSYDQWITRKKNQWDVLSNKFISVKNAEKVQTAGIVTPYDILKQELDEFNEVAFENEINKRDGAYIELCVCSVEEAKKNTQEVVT

[8] = biological target: T2, Duffy blood group antigen (Homo sapiens, UniProt Q16570); conditions: previously shown (Horuk et al. 1993; Chitnis et al. 1994); cited from earlier work
T2 sequence (Q16570 1-336): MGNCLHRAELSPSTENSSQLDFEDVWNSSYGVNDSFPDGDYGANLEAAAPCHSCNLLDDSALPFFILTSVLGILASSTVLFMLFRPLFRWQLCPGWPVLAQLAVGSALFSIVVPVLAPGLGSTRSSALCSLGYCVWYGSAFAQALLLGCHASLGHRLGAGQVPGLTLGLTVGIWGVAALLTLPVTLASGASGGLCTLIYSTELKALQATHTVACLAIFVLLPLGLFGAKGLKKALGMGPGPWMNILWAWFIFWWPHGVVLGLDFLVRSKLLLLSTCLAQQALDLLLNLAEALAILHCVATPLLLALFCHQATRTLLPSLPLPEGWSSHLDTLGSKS

[9] = system: Region II of the P. knowlesi Duffy-binding ligand (α); assay: MGSA inhibition of rhesus erythrocyte binding, P. knowlesi α Region II; assay type: cell-based, Plasmodium knowlesi
[10] = system: Region II of the P. vivax Duffy antigen binding protein; assay: MGSA inhibition of N-glycanase-treated rhesus erythrocyte binding, P. vivax Region II; assay type: cell-based, Plasmodium vivax
Region II of the P. vivax Duffy antigen binding protein, sequence (P22290 211-521): as the sequence (P22290 211-521) above
Method: Blood was collected in 10% citrate/phosphate/dextrose (CPD) (Baxter, Deerfield, Ill.) and stored at 4° C. for up to four weeks. Standard blood banking methods using two antisera (anti-Fya and anti-Fyb) were used to determine the Duffy phenotypes. Duffy positive erythrocytes used in the binding assays had the Fy(a+b+) phenotype. Erythrocytes were washed three times in RPMI 1640 (GIBCO BRL) and resuspended to a hematocrit of 10% in RPMI 1640 for use in the erythrocyte binding assays. Washed human and rhesus erythrocytes were treated with neuraminidase as described earlier (Comus et al. 1985). Human and rhesus erythrocytes were deglycosylated with the N-glycanase, peptide-N-glycosidase F from Flavobacterium meningosepticum (Oxford Glycosystems). Washed erythrocytes (100 μL) were incubated with mixing for 1 h at 37° C. in 500 μL of PBS containing 10 units of N-glycanase and reaction buffer supplied by the manufacturer. The erythrocytes were washed extensively in PBS to remove the enzyme and stop the deglycosylation.
To study the efficacy of the chemokine MGSA in inhibiting binding, erythrocytes were preincubated in media containing different concentrations of MGSA (0 to 1000 nM) for 1 h at room temperature before they were used in erythrocyte binding assays as described earlier (Su et al. 1995). […]

[11] = biological target: Region II of the P. vivax Duffy antigen-binding protein (DABP) expressed on the Cos7 cell surface (Plasmodium vivax; Herpes simplex virus, UniProt P22290)
[12] = biological target: T3, Region II of the P. knowlesi Duffy antigen binding protein (alpha) expressed on the Cos7 cell surface (Plasmodium knowlesi; Herpes simplex …, UniProt P22545)
T3 sequence: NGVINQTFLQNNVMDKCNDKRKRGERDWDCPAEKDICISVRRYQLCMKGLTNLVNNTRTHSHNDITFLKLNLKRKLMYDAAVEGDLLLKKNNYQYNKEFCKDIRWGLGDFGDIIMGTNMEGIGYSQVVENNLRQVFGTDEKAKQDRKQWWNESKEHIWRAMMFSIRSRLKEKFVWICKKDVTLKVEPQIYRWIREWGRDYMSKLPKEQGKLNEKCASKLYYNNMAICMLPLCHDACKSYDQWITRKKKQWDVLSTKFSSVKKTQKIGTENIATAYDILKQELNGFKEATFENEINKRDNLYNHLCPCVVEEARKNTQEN

[13] = system: Rubinstein anti-Fy6 antibody; assay: Binding of the Rubinstein anti-Fy6 antibody to Duffy peptides (ELISA); parameters: species or system murine
[14] = biological target: Region II of the P. knowlesi β protein expressed on the Cos7 cell surface (Plasmodium knowlesi; Herpes simplex …, UniProt P50493)
[15] = biological target: T3, Region II of the P. knowlesi Duffy …; remark: listed apart in the source

Molecule “AELSPSTENSSQLDFEDVWNSSYGVNDSFPDGDYD [HPEP35]” has an IC50 [1] of 4900 ± 2300 nM and an IC50 [2] greater than 100000 nM.

In the case of “AELSPSTQNSSQLNSDLWNFSYDGNDSFPDVDYD [RHPEP34]”, the IC50 [2] is reported as greater than 100000 nM.

For “melanoma growth stimulating activity (MGSA) (from UniProt P09341) (ligand)”, the IC50 [3] was greater than 1000 nM, the IC50 [4] was 5 nM and the IC50 [5] was 5 nM and 6 nM.

For “melanoma growth stimulating activity [MGSA]”, the IC50 [6] is given as greater than 1000 nM, the “inhibition of binding of P. vivax Region II to Duffy-positive human erythrocytes” value [7] is given as “inhibit” and the “binding to the Duffy blood group antigen” value [8] is given as “binds”. For the same molecule, the “inhibition of binding of rhesus erythrocytes to Cos cells expressing Region II of P. knowlesi α” value ([9]; in words) was “inhibit”, the IC50 ([9]; rhesus erythrocytes, treatment none, P. knowlesi α, read-out: 50% Inhibition Conc.) was 5 nM and the “inhibition of binding of N-glycanase-treated rhesus erythrocytes to P. vivax Region II” value ([10]; in words, 50% inhibition at nanomolar concentrations) was “inhibits”. For the same molecule, the IC50 ([10]; rhesus erythrocytes, N-glycanase treated, P. vivax DABP, separate experiments, read-out: 50% Inhibition Conc.) was 5 nM and 6 nM.

Work on AELSPSTENSSQLDFEDVWNSSYGVNDSFPDGDYD [HPEP35] yielded an IC50 [11] of 2900 nM and an IC50 [12] of 4900 nM.

B1: MASSGYVLQAELSPSTENSSQLDFEDVWNSSYGVNDSFPDGDYDANLEAAAPCHSCNLLDDSALPF (peptide)
chain: MASSGYVLQAELSPSTENSSQLDFEDVWNSSYGVNDSFPDGDYDANLEAAAPCHSCNLLDDSALPF
notes: N-terminal peptide of gp-Fyα containing the HPEP35 domain
For B1, the “binding in an ELISA assay (Rubinstein antibody)” value [13] was “bind”.

For AELSPSTQNSSQLNSDLWNFSYDGNDSFPDVDYD [RHPEP34], the IC50 [11] was 2100 nM, the IC50 [14] was greater than 100000 nM and the IC50 [15] was 5500 nM.
